# Experimental data reported in the nanobody polyreactivity screen of Harvey et al. (2022).
# Assay: yeast display, Sf9 membrane polyspecificity reagent, FACS + sequencing; frameworks hold sequencing errors
# Outline: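 Nanobodies from a synthetic yeast display library (Saccharomyces cerevisiae BJ5465), induced 36–48 hours with galactose, were stained 1 hour at 4 °C with 10% biotinylated, detergent-solubilized Sf9 membrane reagent, enriched on streptavidin microbeads, then FACS-sorted. Anti-HA (expression) and streptavidin (reagent binding) fluorescence set low and high (top ~1%) gates. Polyreactivity labels come from the gate of origin. Genes were colony-PCR amplified, MiSeq 2 × 250 sequenced and filtered by CDR length.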
row,Sequence,polyreactivity (PSR sort gate)
1,QVQLVESGGGLVQAGGSLSLSCAASGRIFTYYAMGWYRQAPGKERELVAAINWGVVTTYYADSVKGRFTISRDNAKNTVYLQMNSLKPEDTAVYYCAADWFAANYYVNPVSALDYWGQGTQVTVSS,low polyreactivity
2,QVQLVESGGGLVQAGGSLRLSCAASGFIFAYYAMGWYRQAPGKERELVAAISSRGGTYYADSVKGRFTISRDNAKNTVYFQMNSLKPEDTAVYYCAAASYTWVSRGYEYWGQGTQVTVSS,high polyreactivity
3,QVQLVESGGGLDQAGGSLRLICAASGRTFYYAMGWYRQAPGKERYADSVKGRFTISRDNAKNTVYLQMNSLKPEDTAVYYCAAKVPEPPSLDESDYWGQGTQVTVSS,low polyreactivity
4,QDQHGESGGGLVQAGGSLRLSCAASGFIFWSYTMGWYRQAPGKERELVAVITGSGSTYYADSVKGRFTISRDNAKNTVYFQMNSLKPEDTALYYCATEVHVTAWTFEYEYWGQGTQVTVSS,low polyreactivity
5,QVQLVESGGGLVQAGGSLRLSCAASGSIFGEYTMGWYRQAPGKERELVAAISWNGGITYYADSVKGRFTISRDNAKNTVYLQMNSLKPEDTAVYYCAAETYPWSLFTYYSWGQGSQVTVSS,low polyreactivity
6,QVQLVESGGGLVQAGGSLRLSCAASGIFGWNAMGWYRQAPGKEREFVAGITYSGTRTYYADSVKGRFTISRDNAKNTVYLQMNSLKPEDPAVYYCAATTGHRNYRSYYWGQGTQVTVSS,high polyreactivity
7,QVQLVESGGGLVQAGGRLRIICAASGYIFRFNAMGWYRQAPGKERELVAVITKSGGSTYYADSVKGRFTISRDNAKNTVYLQMNRLKPEDSAVYYCNADRFYIDYTNTYDSIRDYWGQGTQVTVSS,low polyreactivity
8,QDQLVESGGGFVQAGGSLRLSCAASGFIYDNEMGWYRQAPGKERELVASITSRGGNTYYADSVKGRFTISRDNAKNTVYLQMNSLKPEETAVYYCAARYYWGSYGPYGYWGQGTQLTVSS,high polyreactivity
9,QVQLVESGGGLVQAGGSLRLSCAASGSTFKAYAMGWYRQAPGKERELVAAITNSDGDTYYADSVKGRFTISRDNAKNTVYLQMNSLKAEDTAVYYCNALYFLKKLYDYWGQGTQVTVSS,low polyreactivity
10,QVQLVESGGGLVQAGGSLRLSCAASGSTFIYNALGWYRQAPGKERELVAAISSGGSTYYADSVKGRFTISRDNAKNSVYLQMNSLKPEDTAVYYCAAKGFPRSGYPYQAQHMYYWGQGTQVTVSS,low polyreactivity
11,QFQLVESGGGLVQAGGSHRLSCAASGRIFSYYAMGWYRQAPGNERELVATITSGGNTNYADSVKGRFTISLDNAKNTVYLQMNSLKPEDTAVYYCKAAERQWYDAYDYWGQGTQVTVSS,low polyreactivity
12,QVPLVESGVGLVHAGGSLRISCATSGITFAYYFMGWYRQAPGKERELVAAISWTGSSTYYADSVKWRFTISRDNAKNTVYLQMNSLKQEDTAVYYCAARQRYLYDYWGQGTQVNVSS,high polyreactivity
13,QVQLVESGGGLLQAGGSLRLSCAASGRTFGFYTMGWYRQAPGKERELVAGISRGGSTTYADSVKGRFTISRDNAKKTVYVEMNSLKQEDTAVYYSNADRSHYWLPYGVRFDYWGLGTQVTVSS,low polyreactivity
14,QVQLVESGGGLVQAGGSLRLSCAASGRIFYLYAMGWYRQAHGKERELVATINTSGGITYYADSVKGRFTISLDNAKNTVYLQLNSLIPEDTAVYYCNADWEWQYFYFRPGGYWGQGTQETVSS,low polyreactivity
15,QVQLVESGGGLVQAGGSLRLSCAASGRTLSYYAMGWYRQAPGKHRELVAAITYRAGRTYYADSVKGRFTISRDNAKYTVYLQLNSLKPEVTAVYYCYAVKSTGYGYWGQGTQVTVSS,high polyreactivity
16,QVQLVESGGGLVQAGGSLRLSCAASGFTFWYYAMGWYRQAPGKERELVAAISWSGVSTYYADSVKGRFTISRDNAKNTVYLQMNSLKPEDTAVYYCNRRARSYADDYWGQGTQVTVSS,high polyreactivity
